These results are taken from patent publication US20100209424A1.

Assay [1] addresses human FcRn (GFP-hFcRn construct lacking the endosomal targeting domain, expressed on the plasma membrane of human 293 cells) (human) (UniProt P55899). Description: flow cytometry competition against hIgG-Alexa Fluor 647 (40 µg/ml) on 293 cells expressing GFP-hFcRn, pH 5.8.
Assay [2] shares this target. As to the kind of experiment: flow cytometry competition against hIgG-Alexa Fluor 647 on 293 cells expressing GFP-hFcRn, pH 5.8. In general terms: Flow cytometry measures light scatter and fluorescence of single cells or particles in a stream.

Sequence of UniProt P55899 (P55899 24-321): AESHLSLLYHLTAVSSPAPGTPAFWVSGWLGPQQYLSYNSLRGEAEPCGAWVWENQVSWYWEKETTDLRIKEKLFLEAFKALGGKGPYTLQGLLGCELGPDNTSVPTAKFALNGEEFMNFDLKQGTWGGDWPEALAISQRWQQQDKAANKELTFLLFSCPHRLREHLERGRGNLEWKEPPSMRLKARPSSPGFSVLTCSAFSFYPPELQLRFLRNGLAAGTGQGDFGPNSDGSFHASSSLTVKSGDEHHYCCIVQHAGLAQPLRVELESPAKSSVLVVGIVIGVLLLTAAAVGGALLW

On to “human immunoglobulin G (hIgG), unconjugated (antibody)”, for which, in assay [1], the IC50 (as a rule, the point on the concentration scale where inhibition reaches its midpoint) turned out to be 11.4 µM. In the case of “biotinylated human immunoglobulin G (hIgG-biotin) (antibody)”, the fold decrease of IC50 against unconjugated hIgG in assay [2] was 2 fold. This substance also came in with an IC50 in assay [1] of 5.4 µM.
